According to doi:10.1101/2021.10.12.464104 (bioRxiv, 2021):

Biological target: mCer-α1 (human Na+/K+-ATPase α1 subunit fused to the C-terminus of mCerulean) (human, UniProt P05023 1-1023)
Experiment: FRET or BRET

B1: PLM-YFP (human phospholemman fused to the N-terminus of YFP) (natural protein)
chain: ESPKEHDPFTYDYQSLQIGGLVIAGILFILGILIVLSRRCRCKFNQQQRTGEPDEEEGTFRSSIRRLSTRRR
- stoichiometry N: > 1
